We go through 6 substances from publication PMC7840601.

Test [1] addresses human C3b (CompTech) (human). As to the kind of experiment: SPR; 300 RU human C3b amine-coupled on a CM5 chip; FH1-4 WT or variant injected in duplicate at up to 40 uM; Biacore X100, 25 C, 30 ul/min, 10 mM HEPES-buffered saline, 3 mM EDTA, 0.05% surfactant P20; steady-state affinity model.
Test [2] deals with human C3b (CompTech) (human).

For the substance “FH1-4 S159N (from UniProt P08603 19-263) (domain or fragment)”, the KD as a ratio of the KD of WT FH1-4 in test [1] was found to be 1.2 x WT.
On the same count and under the same terms, with “FH1-4 G69E (from UniProt P08603 19-263) (domain or fragment)” the figure was 1.2 x WT.
In test [2], “FH1-4 Q81P (from UniProt P08603 19-263) (domain or fragment)” showed a cofactor activity for FI-mediated cleavage of C3b on sheep erythrocytes, IC50 as a multiple of WT FH1-4 of 11 x WT and a decay acceleration of the C3 convertase (C3bBb) on sheep erythrocytes, IC50 as a multiple of WT FH1-4 of 25.1 x WT.
For “FH1-4 M162V (from UniProt P08603 19-263) (domain or fragment)”, in test [1], the KD as a ratio of the KD of WT FH1-4 was found to be 1.23 x WT.
Same read-out and setting: with “FH1-4 D130N (from UniProt P08603 19-263) (domain or fragment)” the figure was 1.44 x WT.
Same read-out and setting: the result for “FH1-4 A161S (from UniProt P08603 19-263) (domain or fragment)” reads 0.97 x WT.
